In patent publication US20150079657:

Key:
Assay in all cases: cell_activity
[1] = system: ZF(Oct4+420)-p300 (Artificial Sequence); conditions: OCT4 mRNA in HEK293; at least 20-fold in K562; H3K27ac increased
[2] = system: ZF(Oct4+286)-p300 (Artificial Sequence); conditions: OCT4 mRNA in HEK293; at least 20-fold in K562; H3K27ac increased
[3] = system: ZF(Sox2+r475)-p300 (Artificial Sequence); conditions: SOX2 mRNA in HEK293; nearly 2-fold or greater in K562
[4] = system: ZF(Sox2+185)-p300 (Artificial Sequence); conditions: SOX2 mRNA in HEK293; nearly 2-fold or greater in K562
ZF(Sox2+185)-p300 (Artificial Sequence), sequence (chain, as listed by the source): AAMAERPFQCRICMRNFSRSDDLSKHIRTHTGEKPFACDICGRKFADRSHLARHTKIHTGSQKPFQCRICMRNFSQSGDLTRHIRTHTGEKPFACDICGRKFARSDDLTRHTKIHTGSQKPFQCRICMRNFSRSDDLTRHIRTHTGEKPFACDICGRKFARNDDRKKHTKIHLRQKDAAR

ZF(Oct4+420)-p300 (Artificial Sequence), sequence (chain, as listed by the source): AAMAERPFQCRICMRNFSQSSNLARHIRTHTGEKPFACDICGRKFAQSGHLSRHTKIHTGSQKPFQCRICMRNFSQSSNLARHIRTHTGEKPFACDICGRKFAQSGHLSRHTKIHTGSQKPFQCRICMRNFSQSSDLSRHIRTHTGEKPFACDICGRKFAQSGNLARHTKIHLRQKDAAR
ZF(Oct4+286)-p300 (Artificial Sequence), sequence (chain, as listed by the source): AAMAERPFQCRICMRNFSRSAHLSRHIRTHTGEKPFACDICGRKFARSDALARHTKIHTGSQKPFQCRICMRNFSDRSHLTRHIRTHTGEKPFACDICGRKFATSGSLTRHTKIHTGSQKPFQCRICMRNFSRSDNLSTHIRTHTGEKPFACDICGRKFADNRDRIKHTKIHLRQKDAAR
ZF(Sox2+r475)-p300 (Artificial Sequence), sequence (chain, as listed by the source): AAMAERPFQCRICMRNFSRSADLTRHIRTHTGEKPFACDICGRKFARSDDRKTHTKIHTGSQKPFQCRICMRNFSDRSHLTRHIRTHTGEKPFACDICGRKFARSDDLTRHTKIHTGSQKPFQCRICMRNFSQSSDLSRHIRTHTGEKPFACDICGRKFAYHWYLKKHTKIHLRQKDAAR

With OCT4 +420 target site the activity [1] was > 90 fold.
With OCT4 +286 target site the activity [2] was > 90 fold.
SOX2 +r475 target site (reverse strand) was tested, and the activity [3] was > 1.5 fold.
In the case of SOX2 +185 target site, the activity [4] is reported as > 1.5 fold.
